The results in this text go back to publication doi:10.1101/2025.09.04.674342 (2025).

As usually defined, the Kd is the concentration at which binding is half-saturated. A high value points to lower affinity.

The test has as its target CBP KIX domain (residues 586–672) (mouse, UniProt P45481 586-672). The experiment in a line: NMR.

Chain of CBP KIX domain (residues 586–672) (P45481 586-672): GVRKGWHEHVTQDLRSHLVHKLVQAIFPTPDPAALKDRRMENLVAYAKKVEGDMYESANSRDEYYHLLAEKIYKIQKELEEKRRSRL

FSDLPWPL [BMAL1 TAD switch peptide (residues 619–626, FSDLPWPL)]: the Kd was > 500 µM.
